Reference: patent US20260184782A1 (TWIST BIOSCIENCE, published 2026)
Changes are numbered by the printed parent chain.

B1: TIGIT-SC14 (Fc fusion)
VHH: EVQLVESGGGLVQPGGSLRLSCAASGSISSIHAMGWFRQAPGKEREFVATISRSGVGTFYADSVKGRFTISADNSKNTAYLQMNSLKPEDTAVYYCASSYSSSSGLGDIWGQGTLVTVSS
notes: VHH-Fc fusion in assay
B2: TIGIT-SC77 (Fc fusion)
VHH: EVQLVESGGGLVQPGGSLRLSCAASGGAFSTVAMGWFRQAPGKEREAVASIWRSGDSTYYADSVKGRFTISADNSKNTAYLQMNSLKPEDTAVYYCASSYSSSSGLGDIWGQGTLVTVSS
notes: VHH-Fc fusion in assay
B3: TIGIT-SC3 (Fc fusion)
VHH: EVQLVESGGGLVQPGGSLRLSCAASGTFQRINAMGWFRQAPGKEREFVSTINWSGSNTYYADSVKGRFTISADNSKNTAYLQMNSLKPEDTAVYYCASSYSSSSGLGDIWGQGTLVTVSS
notes: VHH-Fc fusion in assay
B4: TIGIT-SC108 (Fc fusion)
VHH: EVQLVESGGGLVQPGGSLRLSCAASGNTFSGGFMGWFRQAPGKEREWVASVLRGGYTWYADSVKGRFTISADNSKNTAYLQMNSLKPEDTAVYYCANGGRVWWAFDYWGQGTLVTVSS
notes: VHH-Fc fusion in assay
B5: TIGIT-SC21 (Fc fusion)
VHH: B4 VHH with N97R, R100A, V101G, W102S, W103D, A104W, D106G, Y107P
notes: VHH-Fc fusion in assay
B6: TIGIT-SC197 (Fc fusion)
VHH: EVQLVESGGGLVQPGGSLRLSCAASGFTFDRSWMGWFRQAPGKEREWVASVLRGGYTWYADSVKGRFTISADNSKNTAYLQMNSLKPEDTAVYYCAREGRTAGWFDPWGQGTLVTVSS
notes: VHH-Fc fusion in assay
B7: TIGIT-SC61 (Fc fusion)
VHH: B4 VHH with A96T, N97R, G99D, R100T, V101A, W102M, W103A, A104T
notes: VHH-Fc fusion in assay
B8: TIGIT-SC175 (Fc fusion)
VHH: EVQLVESGGGLVQPGGSLRLSCAASGNTFSGGFMGWFRQAPGKEREWVASVLRGGYTWYADSVKGRFTISADNSKNTAYLQMNSLKPEDTAVYYCTTDALRFLEWPWWGQGTLVTVSS
notes: VHH-Fc fusion in assay
B9: TIGIT-SC10 (Fc fusion)
VHH: B4 VHH with N97S, G98D, G99P, R100W, V101G, W102T, W103R, A104Y, Y107H
notes: VHH-Fc fusion in assay
B10: TIGIT-SC97 (Fc fusion)
VHH: EVQLVESGGGLVQPGGSLRLSCAASGTAASFNPMGWFRQAPGKEREFVAAISWSGGSTNYADSVKGRFTISADNSKNTAYLQMNSLKPEDTAVYYCVTYSAYDFRNAWGQGTLVTVSS
notes: VHH-Fc fusion in assay
B11: TIGIT-SC95 (Fc fusion)
VHH: EVQLVESGGGLVQPGGSLRLSCAASGPTFSTNVMGWFRQAPGKEREFVSSIHWGGSSTVYADSVKGRFTISADNSKNTAYLQMNSLKPEDTAVYYCVTYSAYDFRNAWGQGTLVTVSS
notes: VHH-Fc fusion in assay
B12: TIGIT-SC19 (Fc fusion)
VHH: EVQLVESGGGLVQPGGSLRLSCAASGRTYDAMGWFRQAPGKEREWVASVLRGGYTWYADSVKGRFTISADNSKNTAYLQMNSLKPEDTAVYYCARDVDYRFDSWGQGTLVTVSS
notes: VHH-Fc fusion in assay
B13: TIGIT-SC39 (Fc fusion)
VHH: EVQLVESGGGLVQPGGSLRLSCAASGRTVSSHAMGWFRQAPGKEREFVAAITSSGSTYYADSVKGRFTISADNSKNTAYLQMNSLKPEDTAVYYCASSYSSSSGLGDIWGQGTLVTVSS
notes: VHH-Fc fusion in assay
B14: TIGIT-SC47 (Fc fusion)
VHH: EVQLVESGGGLVQPGGSLRLSCAASGRALNMYVMGWFRQAPGKERELVAAIDWSGGSALYADSVKGRFTISADNSKNTAYLQMNSLKPEDTAVYYCASGDGYSMDYFDPWGQGTLVTVSS
notes: VHH-Fc fusion in assay
B15: TIGIT-SC113 (Fc fusion)
VHH: EVQLVESGGGLVQPGGSLRLSCAASGFTLNDYAMGWFRQAPGKERELVAWIARYDGSTLYADSVKGRFTISADNSKNTAYLQMNSLKPEDTAVYYCTWGDGYNLGAFDIWGQGTLVTVSS
notes: VHH-Fc fusion in assay
B16: TIGIT-SC112 (Fc fusion)
VHH: B15 VHH with F27R, N30R, D31R, A33V, W50A, A52D, R53W, Y54S, D55G, T58A
notes: VHH-Fc fusion in assay
B17: TIGIT-SC1 (Fc fusion)
VHH: EVQLVESGGGLVQPGGSLRLSCAASGFTLNDYAMGWFRQAPGKERELVAWIARYDGSTLYADSVKGRFTISADNSKNTAYLQMNSLKPEDTAVYYCARVDWALNAAPFDYWGQGTLVTVSS
notes: VHH-Fc fusion in assay
B18: TIGIT-SC78 (Fc fusion)
VHH: B17 VHH with F27L
notes: VHH-Fc fusion in assay
B19: TIGIT-SC48 (Fc fusion)
VHH: EVQLVESGGGLVQPGGSLRLSCAASGRTSDIYGMGWFRQAPGKEREAVASIWRSGGNTYYADSVKGRFTISADNSKNTAYLQMNSLKPEDTAVYYCASSTLDVWGQGTLVTVSS
notes: VHH-Fc fusion in assay
B20: TIGIT-SC170 (Fc fusion)
VHH: EVQLVESGGGLVQPGGSLRLSCAASGHTFSPSWMGWFRQAPGKEREWVASVLRGGYTWYADSVKGRFTISADNSKNTAYLQMNSLKPEDTAVYYCTTELRWELQQPDYWGQGTLVTVSS
notes: VHH-Fc fusion in assay
B21: TIGIT-SC34 (Fc fusion)
VHH: EVQLVESGGGLVQPGGSLRLSCAASGTTFSPYTMGWFRQAPGKEREFVASINSGSRTNYADSVKGRFTISADNSKNTAYLQMNSLKPEDTAVYYCVRSEIGWGQGTLVTVSS
notes: VHH-Fc fusion in assay
B22: TIGIT-SC63 (Fc fusion)
VHH: EVQLVESGGGLVQPGGSLRLSCAASGRAIGSYGMGWFRQAPGKEREFVATISVSGVYTYYADSVKGRFTISADNSKNTAYLQMNSLKPEDTAVYYCARATPGGVVPWGQGTLVTVSS
notes: VHH-Fc fusion in assay
B23: TIGIT-SC58 (Fc fusion)
VHH: EVQLVESGGGLVQPGGSLRLSCAASGFTLGYYVMGWFRQAPGKEREFVATINWSGTLTSYADSVKGRFTISADNSKNTAYLQMNSLKPEDTAVYYCARWVGPKYYFDYWGQGTLVTVSS
notes: VHH-Fc fusion in assay
B24: TIGIT-SC107 (Fc fusion)
VHH: EVQLVESGGGLVQPGGSLRLSCAASGFAFSSDWMGWFRQAPGKEREGVAWIARYDGSTLYADSVKGRFTISADNSKNTAYLQMNSLKPEDTAVYYCAKDLDSSGRFFQHWGQGTLVTVSS
notes: VHH-Fc fusion in assay
B25: TIGIT-SC38 (Fc fusion)
VHH: EVQLVESGGGLVQPGGSLRLSCAASGFTFSEYPMGWFRQAPGKEREFVAVVNWNGDSTYYADSVKGRFTISADNSKNTAYLQMNSLKPEDTAVYYCARGSDWYRYWGQGTLVTVSS
notes: VHH-Fc fusion in assay
B26: TIGIT-SC134 (Fc fusion)
VHH: EVQLVESGGGLVQPGGSLRLSCAASGFTLENNMMGWFRQAPGKEREFVAAISASGTLRAYADSVKGRFTISADNSKNTAYLQMNSLKPEDTAVYYCARWYRVNNWSPGYYYYMDVWGQGTLVTVSS
notes: VHH-Fc fusion in assay
B27: TIGIT-SC160 (Fc fusion)
VHH: EVQLVESGGGLVQPGGSLRLSCAASGNTFSGGFMGWFRQAPGKEREWVASVLRGGYTWYADSVKGRFTISADNSKNTAYLQMNSLKPEDTAVYYCAREGRSSSPWFDPWGQGTLVTVSS
notes: VHH-Fc fusion in assay
B28: TIGIT-SC114 (Fc fusion)
VHH: B27 VHH with R97T, E98V, R100G, S101R, S102Q, S103R, P104T, W105L, P108D
notes: VHH-Fc fusion in assay
B29: TIGIT-SC158 (Fc fusion)
VHH: B27 VHH with N27F, G31P, G32S, F33W
notes: VHH-Fc fusion in assay
B30: TIGIT-SC6 (Fc fusion)
VHH: B27 VHH with R97I, E98S, G99P, R100V, S101A, S102W, S103H, P104A, W105K, P108S
notes: VHH-Fc fusion in assay
B31: TIGIT-SC155 (Fc fusion)
VHH: B27 VHH with R97G, E98D, G99Y, S101G, S102F, S103E, P104M, W105A
notes: VHH-Fc fusion in assay
B32: TIGIT-SC159 (Fc fusion)
VHH: B27 VHH with N27F, S30D, G31R, G32S, F33W
notes: VHH-Fc fusion in assay
B33: TIGIT-SC110 (Fc fusion)
VHH: B27 VHH with E98D, G99H, R100T, S101A, S102M, S103V, P104A, W105P, P108Y
notes: VHH-Fc fusion in assay

Biological target: T1, recombinant human TIGIT (human, UniProt Q495A1 22-141, limits assumed)
T1 construct: recombinant human TIGIT used in Carterra SPR; also called hTIGIT
T1 sequence (looked up): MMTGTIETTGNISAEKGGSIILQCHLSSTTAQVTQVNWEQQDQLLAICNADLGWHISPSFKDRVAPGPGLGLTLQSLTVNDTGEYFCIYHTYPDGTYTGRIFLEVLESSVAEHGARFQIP
Assay: SPR Carterra, average
Description: Binding affinities of VHH-Fc proteins to recombinant human TIGIT were measured by SPR using a Carterra instrument (Table 10A). […] Average values reported from measurements from 1-2 samples.

Row | Binder | Kd | koff | kon
1 | B1 | ≤ 0.00513 nM | ≤ 1e-05 s⁻¹ | 1.95e+06 M⁻¹ s⁻¹
2 | B2 | 2.07 nM | 0.000837 s⁻¹ | 1.17e+06 M⁻¹ s⁻¹
3 | B3 | ≤ 0.00502 nM | ≤ 1e-05 s⁻¹ | 4.71e+06 M⁻¹ s⁻¹
4 | B4 | 8.9 nM | 0.00181 s⁻¹ | 203000 M⁻¹ s⁻¹
5 | B5 | 7.57 nM | 0.000578 s⁻¹ | 86600 M⁻¹ s⁻¹
6 | B6 | 9.35 nM | 0.00156 s⁻¹ | 168000 M⁻¹ s⁻¹
7 | B7 | 59.2 nM | 0.0037 s⁻¹ | 63000 M⁻¹ s⁻¹
8 | B8 | 14.4 nM | 0.00124 s⁻¹ | 101000 M⁻¹ s⁻¹
9 | B9 | 0.328 nM | 0.0002 s⁻¹ | 566000 M⁻¹ s⁻¹
10 | B10 | 0.447 nM | 0.000231 s⁻¹ | 942000 M⁻¹ s⁻¹
11 | B11 | 2.55 nM | 0.00352 s⁻¹ | 1.38e+06 M⁻¹ s⁻¹
12 | B12 | 1.07 nM | 0.0012 s⁻¹ | 1.12e+06 M⁻¹ s⁻¹
13 | B13 | ≤ 0.0423 nM | ≤ 1e-05 s⁻¹ | 342000 M⁻¹ s⁻¹
14 | B14 | ≤ 0.204 nM | ≤ 1e-05 s⁻¹ | 48900 M⁻¹ s⁻¹
15 | B15 | 1.88 nM | 0.000483 s⁻¹ | 257000 M⁻¹ s⁻¹
16 | B16 | 13.2 nM | 0.00393 s⁻¹ | 297000 M⁻¹ s⁻¹
17 | B17 | 0.467 nM | 0.000165 s⁻¹ | 246000 M⁻¹ s⁻¹

Row | Binder | Kd | koff | kon
18 | B18 | 2.02 nM | 0.000493 s⁻¹ | 244000 M⁻¹ s⁻¹
19 | B19 | 0.713 nM | 0.00551 s⁻¹ | 7.72e+06 M⁻¹ s⁻¹
20 | B20 | ≤ 0.222 nM | ≤ 1e-05 s⁻¹ | 45000 M⁻¹ s⁻¹
21 | B21 | ≤ 0.0105 nM | ≤ 1e-05 s⁻¹ | 1.31e+06 M⁻¹ s⁻¹
22 | B22 | ≤ 0.156 nM | ≤ 1e-05 s⁻¹ | 64300 M⁻¹ s⁻¹
23 | B23 | ≤ 0.0118 nM | ≤ 1e-05 s⁻¹ | 860000 M⁻¹ s⁻¹
24 | B24 | 0.693 nM | 0.000148 s⁻¹ | 213000 M⁻¹ s⁻¹
25 | B25 | 0.505 nM | 0.000237 s⁻¹ | 469000 M⁻¹ s⁻¹
26 | B26 | 1.47 nM | 8.98e-05 s⁻¹ | 60900 M⁻¹ s⁻¹
27 | B27 | 31.6 nM | 0.00265 s⁻¹ | 105000 M⁻¹ s⁻¹
28 | B28 | 45.2 nM | 0.00227 s⁻¹ | 50700 M⁻¹ s⁻¹
29 | B29 | 143 nM | 0.00154 s⁻¹ | 18200 M⁻¹ s⁻¹
30 | B30 | 19.4 nM | 0.00129 s⁻¹ | 66700 M⁻¹ s⁻¹
31 | B31 | 126 nM | 0.00647 s⁻¹ | 51300 M⁻¹ s⁻¹
32 | B32 | 14.6 nM | 0.00144 s⁻¹ | 92000 M⁻¹ s⁻¹
33 | B33 | 1.44 nM | 0.000765 s⁻¹ | 531000 M⁻¹ s⁻¹
